Usually stoichiometry N stands for a count of units in the complex or per binding partner.

This note sets out measurements from paper PMC4672880.

The test addresses GCNt stabilized pre-fusion soluble version of the NiV-F glycoprotein (NiV-sFGCNt) (Nipah virus) (UniProt Q9IH63). Briefly: crystal structure.

Turning to “GCNt stabilized pre-fusion soluble version of the NiV-F glycoprotein (NiV-sFGCNt) (from UniProt Q9IH63 27-488) (domain or fragment)”, the stoichiometry N was 3.
